Test results published in US20250052751A1 (University of California, published 2025).

Molecular target: T1, MHC class II I-A^b molecules purified by affinity chromatography (;mouse, UniProt P14434 24-218; P14483 28-226, limits assumed)
T1 construct: Source of the purified I-A^b is not described beyond 'as described (22)'; also called MHC II (I-A^b); MHC II
T1 sequence (MHC II alpha, looked up): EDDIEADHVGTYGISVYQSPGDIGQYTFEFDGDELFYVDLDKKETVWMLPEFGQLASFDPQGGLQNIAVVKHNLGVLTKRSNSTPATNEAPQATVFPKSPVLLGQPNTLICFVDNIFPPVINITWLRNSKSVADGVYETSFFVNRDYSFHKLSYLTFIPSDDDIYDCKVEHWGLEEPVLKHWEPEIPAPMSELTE
T1 sequence (MHC II beta, looked up): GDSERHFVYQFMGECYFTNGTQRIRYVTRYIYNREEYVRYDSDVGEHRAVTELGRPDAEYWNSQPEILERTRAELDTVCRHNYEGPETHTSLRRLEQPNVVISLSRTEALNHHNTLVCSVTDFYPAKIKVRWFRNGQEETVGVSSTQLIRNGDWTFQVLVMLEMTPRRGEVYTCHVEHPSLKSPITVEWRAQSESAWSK
Experiment: competitive binding assay, purified I-A^b, radiolabeled competitor peptide
Experimental: We have now examined AQP4 peptide affinity for I-A^b biochemically. I-A^b molecules that were purified by affinity chromatography were tested in a competitive binding assay between a radiolabeled high-affinity competitor peptide and unlabeled peptides (22). Indeed, peptides containing the two pathogenic AQP4 T cell determinants bound I-A^b with higher affinity than the nonpathogenic AQP4 p24-35 T cell epitope or MOG p35-55 (FIG. 2D).

B1: AQP4 p202-218 (peptide)
peptide: LFAINYTGASMNPARSF
notes: Synthetic peptide (Genemed Synthesis); also called pathogenic AQP4 T cell determinant
fold greater affinity than MOG p35-55: > 10 fold
